No end group written: not given here.
Assays:
[1] = target: hemagglutinin (HA) of influenza virus type A subtype H3 A/Wuhan/359/95 (H3N2), ether extract (influenza virus type A, A/Wuhan/359/95 (H3N2))
[2] = target: hemagglutinin (HA) of influenza virus type A subtype H1 A/PR/8/34 (H1N1), ether extract (influenza virus type A, A/PR/8/34 (H1N1)), P03452; test: phage ELISA, HA immobilised on plate, normalised to A-1 = 1
[3] = target: hemagglutinin (HA) of influenza virus type A subtype H3 A/Wuhan/359/95 (H3N2), ether extract (influenza virus type A, A/Wuhan/359/95 (H3N2)); test: as above
[4] = target: hemagglutinin H3 (GM3 inhibition ELISA, strain not stated)

ARLPRTMVHPKPAQP-NH2 [s-2 peptide, chemosynthesized, …-NH2]
fold binding relative to A-1 [1]: 2.1 fold

ARLPRTMVHPKPAQP (modifications not checked) [filamentous phage fd presenting peptide s-2 (SEQ ID NO: 3)]
fold binding activity relative to A-1 [2]: 3 fold
fold binding activity relative to A-1 [3]: 3 fold

ARLPPTMVRPNGPQP-NH2 [e-1 peptide, chemosynthesized, …-NH2]
fold binding relative to A-1 [1]: 1.2 fold

ARLSPTMVHPNGAQP-NH2 [A-1 peptide, chemosynthesized, …-NH2]
IC50 [4]: 1900 µM

Source: patent US20100119588A1
